9 molecules from patent US20260070978A1 (LENTIGEN TECHNOLOGY, published 2026) can be followed below.

Where a chain is given by its changes, count along the chain named. A value given as a limit tells only on which side of the number the result lay.

For orientation: EC50 means the concentration at which the effect is half-maximal.

T1: recombinant human CD22 (human, UniProt P20273 20-687, limits assumed, fluorescent label, kind and site not stated)
T1 construct: soluble labeled antigen titrated on yeast; sorting steps used CD22-Fc, so the labeled antigen may be the Fc fusion; also called labeled CD22; fluorescently tagged antigen
T1 sequence (looked up): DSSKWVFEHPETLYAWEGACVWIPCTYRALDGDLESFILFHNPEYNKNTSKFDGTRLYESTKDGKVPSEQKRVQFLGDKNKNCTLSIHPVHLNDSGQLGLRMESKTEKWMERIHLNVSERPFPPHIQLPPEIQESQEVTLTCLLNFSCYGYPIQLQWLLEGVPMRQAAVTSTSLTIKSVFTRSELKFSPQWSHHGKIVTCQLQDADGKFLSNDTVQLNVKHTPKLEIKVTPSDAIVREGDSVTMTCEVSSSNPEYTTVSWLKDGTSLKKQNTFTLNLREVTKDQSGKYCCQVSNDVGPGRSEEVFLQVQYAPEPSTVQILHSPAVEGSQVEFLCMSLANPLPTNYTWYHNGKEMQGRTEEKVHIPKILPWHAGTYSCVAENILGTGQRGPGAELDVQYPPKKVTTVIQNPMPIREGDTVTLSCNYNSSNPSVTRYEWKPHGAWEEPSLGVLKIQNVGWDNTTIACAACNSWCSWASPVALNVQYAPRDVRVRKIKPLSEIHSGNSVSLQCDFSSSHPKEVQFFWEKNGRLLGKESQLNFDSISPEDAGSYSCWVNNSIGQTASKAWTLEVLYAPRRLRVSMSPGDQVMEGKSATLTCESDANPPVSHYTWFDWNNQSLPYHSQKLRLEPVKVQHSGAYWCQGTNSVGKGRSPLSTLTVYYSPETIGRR

T2: recombinant human CD19 (human, UniProt P15391 20-291, limits assumed, fluorescent label, kind and site not stated)
T2 construct: soluble labeled antigen titrated on yeast; sorting steps used CD19-Fc, so the labeled antigen may be the Fc fusion; also called labeled CD19; fluorescently tagged antigen
T2 sequence (looked up): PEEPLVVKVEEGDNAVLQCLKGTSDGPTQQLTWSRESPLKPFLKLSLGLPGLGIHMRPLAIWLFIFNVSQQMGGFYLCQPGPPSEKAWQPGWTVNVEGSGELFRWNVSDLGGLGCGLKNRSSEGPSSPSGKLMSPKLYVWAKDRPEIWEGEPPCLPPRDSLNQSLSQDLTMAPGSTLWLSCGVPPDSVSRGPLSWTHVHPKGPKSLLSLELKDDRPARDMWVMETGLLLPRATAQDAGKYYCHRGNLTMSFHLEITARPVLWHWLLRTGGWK

B1: human anti-CD22 ScFv binder 16P17 (scFv, V domains shown)
VH: QVQLQQSGPGLVKHSQTLSLTCAISGDSVSSNSAAWNWIRQSPSRGLEWLGRTYYRSKWYNDYAVSVKSRITINPDTSKNQFSLQLNSVTPEDTAVYYCAQEVEPHDAFDIWGQGTMVTVSS
VL: DIQMTQSPSSVYASVGDKVTITCRASQDVSGWLAWYQQKPGLAPQLLISGASTLQGEVPSRFSGSGSGTDFTLTISSLQPEDFATYYCQQAKYFPYTFGQGTKLEIK
B2: human anti-CD19 ScFv binder M19217-1 (scFv)
scFv: EVQLVQSGAEVKKPGASVKVSCKASGYTFTSYYMHWVRQAPGQGLEWMGLINPSGGSTSYAQKFQGRVTMTRDTSTSTVYMELSSLRSEDTAVYYCARSDRGITATDAFDIWGQGTMVTVSSGGGGSGGGGSGGGGSQSVLTQPPSVSVAPGRMAKITCGGSDIGNKNVHWYQQKPGQAPVLVVYDDYDRPSGIPERFSGSNSGDAATLTISTVEVGDEADYFCQVWDGSGDPYWMFGGGTQLTVL
notes: also called LTG2065
B3: human anti-CD19 ScFv binder M19217 (scFv)
chain: EVQLVQSGAEVKKPGASVKVSCKASGYTFTSYYMHWVRQAPGQGLEWMGIINPSGGSTSYAQKFQGRVTMTRDTSTSTVYMELSSLRSEDTAVYYCARSDRGITATDAFDIWGQGTMVTVSSGGGGSGGGGSGGGGSQSVLTQPPSVSVAPGQTAKITCGGSDIGNKNVHWYQQKPGQAPVLVVYDDYDRPSGIPERFSGSNSGDAATLTISTVEVGDEADYFCQVWDSSGDPYWVFGGGTQLTVLG
B4: human anti-CD19 ScFv binder M19217-40 (scFv)
chain: B3 chain with K13R, E46V, I50L, I157T, F223V, S229G
B5: human anti-CD19 ScFv binder M19217-7 (scFv)
chain: B3 chain with K12N, I50M, A105S, V149L, D189N, A206S, S229G
B6: human anti-CD19 ScFv binder M19217-29 (scFv)
chain: B3 chain with I50M, V169A, P195S, S229G, Y234F
B7: human anti-CD19 ScFv binder M19217-23 (scFv)
chain: B3 chain with S31G, M48I, I50L, A61E, T69A, N166D, S229G, S230I
B8: human anti-CD19 ScFv binder M19217-38 (scFv)
chain: B3 chain with K13R, Q43R, I50L, K63E, T74M, T104S, T154M, D189N, S229G, V245D
B9: human anti-CD19 ScFv binder M19217-2 (scFv)
chain: B3 chain with L45F, I50L, G56S, S85N, S148P, T158I, S229G

One assay has as its target T1, recombinant human CD22. As to the kind of experiment: flow cytometry of yeast-displayed scFv with decreasing amounts of labeled CD22. A general note: Flow cytometry measures light scatter and fluorescence of single cells or particles in a stream.
With B1, the EC50 is below 0.01 µg/mL.

Another assay addresses T2, recombinant human CD19. As to the kind of experiment: flow cytometry of yeast-displayed scFv with decreasing amounts of labeled CD19. Here is the method:
To increase the affinity of m19217, a yeast-display m19217 mutant scFv library was created by using error-prone PCR to create random point mutations in scFv gene sequences. After electroporation, the resulting mutant library was then grown overnight at 30° C. for 16 hours in SDCAA medium and then switched into SGCAA medium at 30° C. for another 16 hours. The mutant library was then sorted through MACS (immunomagentic column, Miltenyi Biotec) with CD19-Fc as the capture antigen to downsize the library and to increase the population of mutants that could bind to CD19-Fc. The strongest binders were then selected by double staining the pools with Anti-c-Myc-Alexa 488 and CD19-Fc/Anti-Hu-Fc and selecting for the binders that had the highest binding affinities as well as c-Myc expression levels. This process was then repeated two more times, until flow cytometry of yeast particles with fluorescently tagged antigen yielded average binding affinities of the mutant pools that were increased over the starting construct. Binding affinities were estimated by flow cytometry of yeast pools using decreasing amounts of labeled CD19.
Consider B2, for which the EC50 is below 0.01 µg/mL. The same measure, in the same setting: for B3 the value was 0.5 µg/mL. Still for that read-out and setting: for B4 the value was below 0.01 µg/mL.

Regarding B5, the EC50 is below 0.01 µg/mL. Regarding B6, the EC50 is below 0.01 µg/mL. On to B7, for which the EC50 was below 0.01 µg/mL. Same read-out and setting: then B8, with below 0.01 µg/mL; and B9, with below 0.01 µg/mL.
